The results in this text go back to US20150266954A1.

For test [1], the target named is cynomolgus monkey IL-21 (cynomolgus monkey). Briefly: cell-based or functional assay.
A further test addresses mouse IL-21 (mouse) (UniProt Q9ES17). Briefly: cell-based or functional assay.
The next test concerns the target rabbit IL-21 (rabbit). The test is described as follows: cell-based or functional assay.
For test [2], the target named is human IL-21 (human) (UniProt Q9HBE4). Briefly: cell-based or functional assay.
Chain of human IL-21 (human) (Q9HBE4 32-162): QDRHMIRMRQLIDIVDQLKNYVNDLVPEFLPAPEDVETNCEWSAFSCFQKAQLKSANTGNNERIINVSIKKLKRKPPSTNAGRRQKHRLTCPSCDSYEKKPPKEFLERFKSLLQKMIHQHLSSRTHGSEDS
The target is the same in test [3]. The test is described as follows: capture ELISA, biotin-IL-21 at 3.7 nM.
The target is the same in test [4]. The test is described as follows: capture ELISA, biotin-IL-21 at 0.14 nM.
Test [5] has the same target. Briefly: capture ELISA, biotin-IL-21 at 0.05 nM. (In general: An ELISA detects its analyte on a solid surface through an enzyme-linked reagent.)
Test [6] has the same target. The test is described as follows: capture ELISA, biotin-IL-21 at 0.41 nM.
The target is the same in test [7]. Briefly: capture ELISA, biotin-IL-21 at 1.2 nM.
Test [8] has the same target. Briefly: capture ELISA, biotin-IL-21 at 11 nM.
Test [9] has the same target. The test is described as follows: capture ELISA, biotin-IL-21 at 33 nM.

Chain of rabbit IL-21 (rabbit) (chain, as listed by the source limits assumed): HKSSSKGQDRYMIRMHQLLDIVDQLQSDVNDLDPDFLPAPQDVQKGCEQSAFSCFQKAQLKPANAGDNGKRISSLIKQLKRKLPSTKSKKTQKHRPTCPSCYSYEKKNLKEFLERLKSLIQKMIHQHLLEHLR
Chain of cynomolgus monkey IL-21 (cynomolgus monkey) (Q9HBE4 other isoform, or with tags, fused parts or gaps): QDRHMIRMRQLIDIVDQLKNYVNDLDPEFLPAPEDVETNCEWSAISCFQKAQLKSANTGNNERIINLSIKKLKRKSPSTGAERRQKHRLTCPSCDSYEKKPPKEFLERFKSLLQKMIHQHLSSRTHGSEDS

“human IL-21R:Fc chimera (R&D Systems, cat #991-R2) (from UniProt Q9HBE5 20-232) (Fc fusion)” showed an IC50, IM9 pan-STAT-luciferase reporter assay, IL-21 at 66.67 pM in [1] of 3920 pM. This substance registered an IC50, IM9 pan-STAT-luciferase reporter assay, IL-21 at 66.67 pM with mouse IL-21 (mouse) of 3530 pM. The substance further showed an IC50, IM9 pan-STAT-luciferase reporter assay, IL-21 at 66.67 pM in the test with rabbit IL-21 (rabbit) of 321 pM. For the same substance, in the test with human IL-21 (human) [2], the % of maximum IL-21-induced B cell proliferation at 0.1 nM inhibitor (SDEV 15.8) amounted to 83%, the % of maximum IL-21-induced B cell proliferation at 0.21 nM inhibitor (SDEV 10.8) is 99%, the % of maximum IL-21-induced B cell proliferation at 0.42 nM inhibitor (SDEV 6.43) came to 87% and the % of maximum IL-21-induced B cell proliferation at 0.83 nM inhibitor (SDEV 6.33) amounted to 109%. Also, in the test with human IL-21 (human) [2], the % of maximum IL-21-induced B cell proliferation at 1.67 nM inhibitor (SDEV 12.6) turned out to be 90%, the % of maximum IL-21-induced B cell proliferation at 3.33 nM inhibitor (SDEV 13.7) amounted to 103%, the % of maximum IL-21-induced B cell proliferation at 13.3 nM inhibitor (SDEV 13.8) amounted to 77% and the % of maximum IL-21-induced B cell proliferation at 53.3 nM inhibitor (SDEV 6.2) worked out at 83%. In addition, the IC50, IM9 pan-STAT-luciferase reporter assay, IL-21 at 66.67 pM with human IL-21 (human) [2] worked out at 271 pM.

As for human IgG4 isotype control antibody, in the test with human IL-21 (human) [2], the % of maximum IL-21-induced B cell proliferation at 0.1 nM inhibitor (SDEV 5.34) worked out at 96%, the % of maximum IL-21-induced B cell proliferation at 0.21 nM inhibitor (SDEV 10.3) is 115%, the % of maximum IL-21-induced B cell proliferation at 0.42 nM inhibitor (SDEV 17.1) was determined as 107% and the % of maximum IL-21-induced B cell proliferation at 0.83 nM inhibitor (SDEV 15.3) turned out to be 114%. In the test with human IL-21 (human) [2], this substance yielded a % of maximum IL-21-induced B cell proliferation at 1.67 nM inhibitor (SDEV 4.78) of 108%, a % of maximum IL-21-induced B cell proliferation at 3.33 nM inhibitor (SDEV 18.7) of 119%, a % of maximum IL-21-induced B cell proliferation at 6.67 nM inhibitor (SDEV 17.9) of 103% and a % of maximum IL-21-induced B cell proliferation at 13.3 nM inhibitor (SDEV 6.21) of 101%. In the test with human IL-21 (human) [2], this substance displayed a % of maximum IL-21-induced B cell proliferation at 26.7 nM inhibitor (SDEV 11.2) of 96%; a fold increase of plasma cells (CD38 high, IgD low), donor 1, 26.7 nM antibody (IL-21 without antibody: 176) of 174 fold; a fold increase of plasma cells (CD38 high, IgD low), donor 2, 26.7 nM antibody (IL-21 without antibody: 114) of 108 fold; a fold increase of plasma cells (CD38 high, IgD low), donor 3, 26.7 nM antibody (IL-21 without antibody: 47) of 47 fold. In the test with human IL-21 (human) [2], this substance displayed a fold increase of plasma cells (CD38 high, IgD low), donor 4, 26.7 nM antibody (IL-21 without antibody: 68) of 66 fold and a fold increase of plasma cells (CD38 high, IgD low), donor 5, 26.7 nM antibody (IL-21 without antibody: 22) of 23 fold. In addition, in the test with human IL-21 (human) [3], the OD at 560 nm stood at 0.06 OD. The substance also came in with an OD at 560 nm with human IL-21 (human) [4] of 0.06 OD. For the same substance, the OD at 560 nm with human IL-21 (human) [5] stood at 0.06 OD. The OD at 560 nm with human IL-21 (human) [6] turned out to be 0.06 OD. In the test with human IL-21 (human) [7], this substance registered an OD at 560 nm of 0.06 OD. This substance also registered an OD at 560 nm with human IL-21 (human) [8] of 0.06 OD. In the test with human IL-21 (human) [9], this substance had an OD at 560 nm of 0.06 OD.
